Results on twelve molecules are retold here after patent US20200199241A1 (Chugai, published 2020).

To fix the notation:
B1: IgG1-F832 (antibody)
heavy: QVQLQESGPGLVKPSETLSLTCAVSGHSISHDHAWSWVRQPPGEGLEWIGFISYSGITNYNPSLQGRVTISRDNSKNTLYLQMNSLRAEDTAVYYCARSLARTTAMDYWGEGTLVTVSSASTKGPSVFPLAPSSKSTSGGTAALGCLVKDYFPEPVTVSWNSGALTSGVHTFPAVLQSSGLYSLSSVVTVPSSSLGTQTYICNVNHKPSNTKVDKKVEPKSCDKTHTCPPCPAPELLGGDSVFLFPPKPKDVLYISDTPEVTCVVVDVSHEDPEVKFNWYVDGVEVHNAKTKPREEQYNSTYRVVSVLTVLHQDWLNGKEYKCKVSNKALPAPIEKTISKAKGQPREPQVYTLPPSRDELTKNQVSLTCLVKGFYPSDIAVEWESNGQPENNYKTTPPVLDSDGSFFLYSKLTVDKSRWQQGNVFSCSVMHEALHYHYTQKSLSLSP
light: not shown
notes: EU numbering; copies: 2 + 2
B2: IgG1-F839 (antibody)
heavy: QVQLQESGPGLVKPSETLSLTCAVSGHSISHDHAWSWVRQPPGEGLEWIGFISYSGITNYNPSLQGRVTISRDNSKNTLYLQMNSLRAEDTAVYYCARSLARTTAMDYWGEGTLVTVSSASTKGPSVFPLAPSSKSTSGGTAALGCLVKDYFPEPVTVSWNSGALTSGVHTFPAVLQSSGLYSLSSVVTVPSSSLGTQTYICNVNHKPSNTKVDKKVEPKSCDKTHTCPPCPAPELLGGDSVFLFPPKPKDVLYISLTPEVTCVVVDVSHEDPEVKFNWYVDGVEVHNAKTKPREEQYNSTYRVVSVLTVLHQDWLNGKEYKCKVSNKALPAPIEKTISKAKGQPREPQVYTLPPSRDELTKNQVSLTCLVKGFYPSDIAVEWESNGQPENNYKTTPPVLDSDGSFFLYSKLTVDKSRWQQGNVFSCSVMHEALHYHYTQKSLSLSP
light: not shown
notes: EU numbering; copies: 2 + 2
B3: IgG1-F837 (antibody)
heavy: QVQLQESGPGLVKPSETLSLTCAVSGHSISHDHAWSWVRQPPGEGLEWIGFISYSGITNYNPSLQGRVTISRDNSKNTLYLQMNSLRAEDTAVYYCARSLARTTAMDYWGEGTLVTVSSASTKGPSVFPLAPSSKSTSGGTAALGCLVKDYFPEPVTVSWNSGALTSGVHTFPAVLQSSGLYSLSSVVTVPSSSLGTQTYICNVNHKPSNTKVDKKVEPKSCDKTHTCPPCPAPELLGGDSVFLFPPKPKDVLYISITPEVTCVVVDVSHEDPEVKFNWYVDGVEVHNAKTKPREEQYNSTYRVVSVLTVLHQDWLNGKEYKCKVSNKALPAPIEKTISKAKGQPREPQVYTLPPSRDELTKNQVSLTCLVKGFYPSDIAVEWESNGQPENNYKTTPPVLDSDGSFFLYSKLTVDKSRWQQGNVFSCSVMHEALHYHYTQKSLSLSP
light: not shown
notes: EU numbering; copies: 2 + 2
B4: IgG1-F843 (antibody)
heavy: QVQLQESGPGLVKPSETLSLTCAVSGHSISHDHAWSWVRQPPGEGLEWIGFISYSGITNYNPSLQGRVTISRDNSKNTLYLQMNSLRAEDTAVYYCARSLARTTAMDYWGEGTLVTVSSASTKGPSVFPLAPSSKSTSGGTAALGCLVKDYFPEPVTVSWNSGALTSGVHTFPAVLQSSGLYSLSSVVTVPSSSLGTQTYICNVNHKPSNTKVDKKVEPKSCDKTHTCPPCPAPELLGGDSVFLFPPKPKDVLYISQTPEVTCVVVDVSHEDPEVKFNWYVDGVEVHNAKTKPREEQYNSTYRVVSVLTVLHQDWLNGKEYKCKVSNKALPAPIEKTISKAKGQPREPQVYTLPPSRDELTKNQVSLTCLVKGFYPSDIAVEWESNGQPENNYKTTPPVLDSDGSFFLYSKLTVDKSRWQQGNVFSCSVMHEALHYHYTQKSLSLSP
light: not shown
notes: EU numbering; copies: 2 + 2
B5: IgG1-F840 (antibody)
heavy: QVQLQESGPGLVKPSETLSLTCAVSGHSISHDHAWSWVRQPPGEGLEWIGFISYSGITNYNPSLQGRVTISRDNSKNTLYLQMNSLRAEDTAVYYCARSLARTTAMDYWGEGTLVTVSSASTKGPSVFPLAPSSKSTSGGTAALGCLVKDYFPEPVTVSWNSGALTSGVHTFPAVLQSSGLYSLSSVVTVPSSSLGTQTYICNVNHKPSNTKVDKKVEPKSCDKTHTCPPCPAPELLGGDSVFLFPPKPKDVLYISMTPEVTCVVVDVSHEDPEVKFNWYVDGVEVHNAKTKPREEQYNSTYRVVSVLTVLHQDWLNGKEYKCKVSNKALPAPIEKTISKAKGQPREPQVYTLPPSRDELTKNQVSLTCLVKGFYPSDIAVEWESNGQPENNYKTTPPVLDSDGSFFLYSKLTVDKSRWQQGNVFSCSVMHEALHYHYTQKSLSLSP
light: not shown
notes: EU numbering; copies: 2 + 2
B6: IgG1-F834 (antibody)
heavy: QVQLQESGPGLVKPSETLSLTCAVSGHSISHDHAWSWVRQPPGEGLEWIGFISYSGITNYNPSLQGRVTISRDNSKNTLYLQMNSLRAEDTAVYYCARSLARTTAMDYWGEGTLVTVSSASTKGPSVFPLAPSSKSTSGGTAALGCLVKDYFPEPVTVSWNSGALTSGVHTFPAVLQSSGLYSLSSVVTVPSSSLGTQTYICNVNHKPSNTKVDKKVEPKSCDKTHTCPPCPAPELLGGDSVFLFPPKPKDVLYISFTPEVTCVVVDVSHEDPEVKFNWYVDGVEVHNAKTKPREEQYNSTYRVVSVLTVLHQDWLNGKEYKCKVSNKALPAPIEKTISKAKGQPREPQVYTLPPSRDELTKNQVSLTCLVKGFYPSDIAVEWESNGQPENNYKTTPPVLDSDGSFFLYSKLTVDKSRWQQGNVFSCSVMHEALHYHYTQKSLSLSP
light: not shown
notes: EU numbering; copies: 2 + 2
B7: IgG1-F844 (antibody)
heavy: QVQLQESGPGLVKPSETLSLTCAVSGHSISHDHAWSWVRQPPGEGLEWIGFISYSGITNYNPSLQGRVTISRDNSKNTLYLQMNSLRAEDTAVYYCARSLARTTAMDYWGEGTLVTVSSASTKGPSVFPLAPSSKSTSGGTAALGCLVKDYFPEPVTVSWNSGALTSGVHTFPAVLQSSGLYSLSSVVTVPSSSLGTQTYICNVNHKPSNTKVDKKVEPKSCDKTHTCPPCPAPELLGGDSVFLFPPKPKDVLYISSTPEVTCVVVDVSHEDPEVKFNWYVDGVEVHNAKTKPREEQYNSTYRVVSVLTVLHQDWLNGKEYKCKVSNKALPAPIEKTISKAKGQPREPQVYTLPPSRDELTKNQVSLTCLVKGFYPSDIAVEWESNGQPENNYKTTPPVLDSDGSFFLYSKLTVDKSRWQQGNVFSCSVMHEALHYHYTQKSLSLSP
light: not shown
notes: EU numbering; copies: 2 + 2
B8: IgG1-F841 (antibody)
heavy: QVQLQESGPGLVKPSETLSLTCAVSGHSISHDHAWSWVRQPPGEGLEWIGFISYSGITNYNPSLQGRVTISRDNSKNTLYLQMNSLRAEDTAVYYCARSLARTTAMDYWGEGTLVTVSSASTKGPSVFPLAPSSKSTSGGTAALGCLVKDYFPEPVTVSWNSGALTSGVHTFPAVLQSSGLYSLSSVVTVPSSSLGTQTYICNVNHKPSNTKVDKKVEPKSCDKTHTCPPCPAPELLGGDSVFLFPPKPKDVLYISNTPEVTCVVVDVSHEDPEVKFNWYVDGVEVHNAKTKPREEQYNSTYRVVSVLTVLHQDWLNGKEYKCKVSNKALPAPIEKTISKAKGQPREPQVYTLPPSRDELTKNQVSLTCLVKGFYPSDIAVEWESNGQPENNYKTTPPVLDSDGSFFLYSKLTVDKSRWQQGNVFSCSVMHEALHYHYTQKSLSLSP
light: not shown
notes: EU numbering; copies: 2 + 2
B9: IgG1-F836 (antibody)
heavy: QVQLQESGPGLVKPSETLSLTCAVSGHSISHDHAWSWVRQPPGEGLEWIGFISYSGITNYNPSLQGRVTISRDNSKNTLYLQMNSLRAEDTAVYYCARSLARTTAMDYWGEGTLVTVSSASTKGPSVFPLAPSSKSTSGGTAALGCLVKDYFPEPVTVSWNSGALTSGVHTFPAVLQSSGLYSLSSVVTVPSSSLGTQTYICNVNHKPSNTKVDKKVEPKSCDKTHTCPPCPAPELLGGDSVFLFPPKPKDVLYISHTPEVTCVVVDVSHEDPEVKFNWYVDGVEVHNAKTKPREEQYNSTYRVVSVLTVLHQDWLNGKEYKCKVSNKALPAPIEKTISKAKGQPREPQVYTLPPSRDELTKNQVSLTCLVKGFYPSDIAVEWESNGQPENNYKTTPPVLDSDGSFFLYSKLTVDKSRWQQGNVFSCSVMHEALHYHYTQKSLSLSP
light: not shown
notes: EU numbering; copies: 2 + 2
B10: IgG1-F833 (antibody)
heavy: QVQLQESGPGLVKPSETLSLTCAVSGHSISHDHAWSWVRQPPGEGLEWIGFISYSGITNYNPSLQGRVTISRDNSKNTLYLQMNSLRAEDTAVYYCARSLARTTAMDYWGEGTLVTVSSASTKGPSVFPLAPSSKSTSGGTAALGCLVKDYFPEPVTVSWNSGALTSGVHTFPAVLQSSGLYSLSSVVTVPSSSLGTQTYICNVNHKPSNTKVDKKVEPKSCDKTHTCPPCPAPELLGGDSVFLFPPKPKDVLYISETPEVTCVVVDVSHEDPEVKFNWYVDGVEVHNAKTKPREEQYNSTYRVVSVLTVLHQDWLNGKEYKCKVSNKALPAPIEKTISKAKGQPREPQVYTLPPSRDELTKNQVSLTCLVKGFYPSDIAVEWESNGQPENNYKTTPPVLDSDGSFFLYSKLTVDKSRWQQGNVFSCSVMHEALHYHYTQKSLSLSP
light: not shown
notes: EU numbering; copies: 2 + 2
B11: IgG1-F838 (antibody)
heavy: QVQLQESGPGLVKPSETLSLTCAVSGHSISHDHAWSWVRQPPGEGLEWIGFISYSGITNYNPSLQGRVTISRDNSKNTLYLQMNSLRAEDTAVYYCARSLARTTAMDYWGEGTLVTVSSASTKGPSVFPLAPSSKSTSGGTAALGCLVKDYFPEPVTVSWNSGALTSGVHTFPAVLQSSGLYSLSSVVTVPSSSLGTQTYICNVNHKPSNTKVDKKVEPKSCDKTHTCPPCPAPELLGGDSVFLFPPKPKDVLYISKTPEVTCVVVDVSHEDPEVKFNWYVDGVEVHNAKTKPREEQYNSTYRVVSVLTVLHQDWLNGKEYKCKVSNKALPAPIEKTISKAKGQPREPQVYTLPPSRDELTKNQVSLTCLVKGFYPSDIAVEWESNGQPENNYKTTPPVLDSDGSFFLYSKLTVDKSRWQQGNVFSCSVMHEALHYHYTQKSLSLSP
light: not shown
notes: EU numbering; copies: 2 + 2
B12: IgG1-F847 (antibody)
heavy: QVQLQESGPGLVKPSETLSLTCAVSGHSISHDHAWSWVRQPPGEGLEWIGFISYSGITNYNPSLQGRVTISRDNSKNTLYLQMNSLRAEDTAVYYCARSLARTTAMDYWGEGTLVTVSSASTKGPSVFPLAPSSKSTSGGTAALGCLVKDYFPEPVTVSWNSGALTSGVHTFPAVLQSSGLYSLSSVVTVPSSSLGTQTYICNVNHKPSNTKVDKKVEPKSCDKTHTCPPCPAPELLGGDSVFLFPPKPKDVLYISWTPEVTCVVVDVSHEDPEVKFNWYVDGVEVHNAKTKPREEQYNSTYRVVSVLTVLHQDWLNGKEYKCKVSNKALPAPIEKTISKAKGQPREPQVYTLPPSRDELTKNQVSLTCLVKGFYPSDIAVEWESNGQPENNYKTTPPVLDSDGSFFLYSKLTVDKSRWQQGNVFSCSVMHEALHYHYTQKSLSLSP
light: not shown
notes: EU numbering; copies: 2 + 2

For this assay, the target named is T1, soluble human FcRn complexed with β2-microglobulin (human, UniProt P61769 21-119, limits assumed).
T1 construct: also called hFcRn
T1 sequence (chain, as listed by the source limits assumed, chain 1 of 2): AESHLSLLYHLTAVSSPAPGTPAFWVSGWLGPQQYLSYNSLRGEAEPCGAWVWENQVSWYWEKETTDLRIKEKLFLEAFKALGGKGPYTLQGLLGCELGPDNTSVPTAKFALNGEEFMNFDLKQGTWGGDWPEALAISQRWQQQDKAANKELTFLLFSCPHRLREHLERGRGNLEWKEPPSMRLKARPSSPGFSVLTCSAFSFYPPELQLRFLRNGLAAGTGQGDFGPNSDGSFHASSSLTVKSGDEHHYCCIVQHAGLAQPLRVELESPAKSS
T1 sequence (P61769 21-119 limits assumed, chain 2 of 2): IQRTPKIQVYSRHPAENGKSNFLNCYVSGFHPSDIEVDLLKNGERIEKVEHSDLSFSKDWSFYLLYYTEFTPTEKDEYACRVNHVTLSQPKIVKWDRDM
The assay is described as follows: Biacore SPR, pH 7.0.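 Note: test antibodies captured on a Protein L chip with human FcRn flowed over as analyte, KD obtained as the ratio of dissociation to association rate constants.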
Consider B1, for which the equilibrium dissociation constant (Kd) worked out at 2600 nM.
In the case of B2, the Kd came out at 340 nM.
Molecule B3 registered a Kd of 560 nM.
With B4 the figure was 660 nM; with B5, 420 nM.
With B6 the figure was 810 nM.
Take B7: binding was characterised by a dissociation constant (Kd) of 1300 nM.
With B8 the figure was 1100 nM.
Molecule B9 came in with a Kd of 500 nM.
As for B10, the figure is 800 nM; as for B11, 430 nM; as for B12, 340 nM.
